Test results from the supplement of paper PMC9170038.

Tested on: K4 kissing-loop RNA reporter
Assay: apparent KD of K4 kissing-loop reporter; higher = weaker reporter binding
Conditions: Eterna round: R107
Protocol: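 RNA-MaP round R107: designed RNA switches with theophylline, tryptophan, arginine or FMN aptamers are transcribed on-chip within common flanks. They are titrated with a labelled K4 kissing-loop RNA reporter in RNA-MaP buffer (100 mM Tris pH 7.5, 80 mM KCl, 4 mM MgCl2), without ligand or with the indicated ligand. Median apparent KD per design.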

[1] = input ligand: theophylline 20 uM
[2] = input ligand: tryptophan 2.4 mM
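Note: bound reporter read as fluorescence of individual clusters on recovered sequencing chips by microscopy, with normalized cluster intensities fitted with a binding model.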

Sequence | apparent KD of K4 kissing-loop reporter (input ligand: FMN 200 uM) | apparent KD of K4 kissing-loop reporter (input ligand: arginine 13.2 mM) | apparent KD of K4 kissing-loop reporter (input ligand: none) | apparent KD of K4 kissing-loop reporter [1] | apparent KD of K4 kissing-loop reporter [2]
ACAGUCGGCUGUGAUACCAGUCGUAUAACAACAUGUUGCAGUGAUGUUGCGAGAUAGGAUGACCCUUGGCAGCACUCAGUACGAC [Same State Theophylline B GF11] | 324 nM | 101 nM | 248 nM | 328 nM | 150 nM
UGUCAUUGGUCUGAUACCAGAUGAUAAUCUGGAGUGAUGUUCCAAGAACGACAAAGUCGCAUCCCUUGGCAGCAGACCGAUGACU [TheoBS 18 #SwitchBubble 13 #StaticStem] | 312 nM | 151 nM | 236 nM | 526 nM | 238 nM
AAUAAAAUCACGGCCGCCACUGAAUAAUUGGUAAGUAGUGAUGUUACUUUACAUAUCUUAUUUAACAGGACCGGGUGAAUAUUUA [JR_ExcTryptoB_Sub008] | 134 nM | 92.4 nM | 116 nM | 103 nM | 131 nM
AGACUACUGAUAGGAUAUAACAUACUACUCGUAUACCAAAGGUAUACGAGAACCCUUCUAGUGAUGUUAGAAGGGUCGGUAGUCA [Omei KL FMN B Exc B v7] | 82.6 nM | 68 nM | 70.9 nM | 70.1 nM | 72.8 nM
GUACGCUUCCGAGUGAUGUUCGGUAAUAGUUAGGAUAUCGCUUUUGCGAGAAGGAACUGAAUGAGGAAACUCGUUCGAAGUGUAC [FMN A 17] | 406 nM | 336 nM | 540 nM | 396 nM | 459 nM
UGAUAGGAGUGAAGGAGCGGGAGUGAUGUUCCCAAAAUGGAAGCCUGUAAAAUACAGGCCUCCCAGGUAGGUCGCACUCCUAUCU [KL-XARG-B17] | 98.3 nM | 112 nM | 101 nM | 117 nM | 94.7 nM
CGAGUGAUGUUCGUUCGUUUAUUUUUUUGACAGGAUAUGCGGAAACGCAGAAGGGUCACCUUUGAGUUAAAAGAAUUUACGUUAU [Ex FMN A 25] | 460 nM | 475 nM | 576 nM | 465 nM | 414 nM
ACAUUUUCAAGUGAUACCAGACAUUUUUUUUUCUUUAUUUAUGCUAAGUGAUGUUUAGCAGUCCCUUGGCAGCACUAUUUAACUA [JR_Nu_SSTheophyB_Sub031] | 121 nM | 101 nM | 93.2 nM | 169 nM | 115 nM
UAAUCCUAGUGAUACUUAUCAAGUGGUGGGCGAGGACCGGUACGGCCGCCACUCGAAUAUGCAGUGAUGUUGUAAUCCGGAUAAU [Exclusion - Tryptophan A (Freestyle 8)] | 668 nM | 722 nM | 997 nM | 1500 nM | 397 nM
GCUAUGGUUGGAAGGAGCGUUGGGUUACUAAUAAGAGUGAUGUUCGAUAGUAGGUAAUUGUAGCAGGUAGGUCGCCAACUAUAGC [KL-Arg B26] | 290 nM | 304 nM | 329 nM | 234 nM | 211 nM
AAUGUACAGGGAAGGAGCGUCGUCCAGUGAUGUUGGAGUUAAAUACCAGUGAUGUUGGUUAGGCAGGUAGGUCGCCCUAAAGUAU [#08 K4 Arginine B Exclusion] | 96.1 nM | 71.5 nM | 86.9 nM | 80 nM | 75.2 nM
CUUUGGAGUGAUGUUCCAGGUUGUACGGAUACCAGCCAAGCCAGAGGCCCUUGGCAGCCGAGUAUUGCAGUGAUGUUGCGAUGGG [Same State Theophylline A GF 2] | 304 nM | 239 nM | 282 nM | 335 nM | 261 nM
AUUUUAAUCGCAGAUACCAGUCCAGAAUGAAUACUAUAGUGAUGUUAUAAUAAAGGGAAGGACCCUUGGCAGCUGUACUAUAUUA [AstrosSsTheB#9] | 467 nM | 287 nM | 445 nM | 304 nM | 281 nM
GUGUGUGUCGGAGGAUAUGCGAUAGAUGUAGGAGAAUUAGUGAUGUUAGUUAUGGUAGAGAUAGGAGUAGAAGGUUGGUGUGUGU [RHig 3/7 B] | 440 nM | 413 nM | 484 nM | 572 nM | 428 nM
GGGCGCGGCGCGGCCGCCACUGGGCCUGGGCGCUCGCUGAGUGAUGUUCGCCGGCGGCUGGGUCGUAGGACCGGGUGCCGGCUGG [BDazzled - #3 SS Tryptophan B] | 610 nM | 490 nM | 1270 nM | 902 nM | 452 nM
GUCGAUGGUAACCGCUGACGUCGAUGAUGGGAGGAUAUGUUAGUUGACAGAAGGCCCAGUGAUGUUGGGCGUUUGUCUUGGUAUA [Ustecexe] | 517 nM | 143 nM | 145 nM | 134 nM | 136 nM
AACACUCAACGGAGUGAUGUUCUGGAAAACCGAGGACCGGUACGGCCGCCACUCGGAAAUGAGUGAGUCCUACGAAAAGUAGGAC [Omei inspired 2] | 160 nM | 161 nM | 150 nM | 157 nM | 125 nM
UGUCAUUGGUCGGCCGCCACUAGACGGACAUAAGUCUGUCAAUAAAGAGUGAUGUUCUUAAAUAAUAGGACCGGGACCGAUGACU [TrypBS 28 #SwitchBubble #StaticStem] | 527 nM | 458 nM | 451 nM | 503 nM | 201 nM
UUGAGGGAGAAUUAUAGUGAUGUUAUAAAGAAGGAUAUCCAAAGAAGGAGAAGGUCUAAGAGGGAAGGGAGGGAGGGAGGGAGGG [ExFMNA.C] | 380 nM | 131 nM | 281 nM | 97.1 nM | 202 nM
GCCGUAGAUUGAAGGAGCGACAUAAACGAUGUUCUGGUAGUGAUGUUACCUUAGCAGGCAUGUCAGGUAGGUCGCAAUCUACGGC | 238 nM | 133 nM | 209 nM | 162 nM | 176 nM
GGUAUCUAUACAGAUACCAGUCGUACAGCACCAUUACAGGUUAGUGAUGUUAACCUGUACGACCCUUGGCAGCUGUAUAAUAAUA [Theo B Ex t2a] | 105 nM | 85.4 nM | 96.8 nM | 121 nM | 87.9 nM

Sequence | apparent KD of K4 kissing-loop reporter (input ligand: FMN 200 uM) | apparent KD of K4 kissing-loop reporter (input ligand: arginine 13.2 mM) | apparent KD of K4 kissing-loop reporter (input ligand: none) | apparent KD of K4 kissing-loop reporter [1] | apparent KD of K4 kissing-loop reporter [2]
AUUAAUUUCAGAGGAUAUCGUAUUAAUAUUUUAUCUAUCUAUAUAUGCAGUGAUGUUGCAAUAAUUCGAGAAGGCUGAUUUAUAA [JR_ExcFMNB_Sub009] | 93.9 nM | 101 nM | 52.3 nM | 91.8 nM | 47.7 nM
CGGAGUGAUGUUCCGUUAAUUCCUUAUUUACGAGGACCGGUACGGCCGCCACUCGAUUUUGCUUUUAUUUAAUGUUUGGAAAUUU [JR_SSTryptoA_Sub007] | 256 nM | 274 nM | 269 nM | 317 nM | 122 nM
AAGUGAUGUUGUAGUGAUGUUGUGAUGUUGCAGGAUAUAUAGUGAUGUAGAAGGGUAUGUACUGAUUUUUUUUUUGAGUGAUGUU [awaqmullin] | 99.2 nM | 43 nM | 77.3 nM | 58.8 nM | 79.9 nM
UUAAGGGUCCGAGGAUAUCUCCCAGUGAUGUUGGGCGAUACGGCCCUUAAGACGAAUGGUUGAAGGAGAGAAGGCGGCUCCCGAU [Onatbi] | 119 nM | 132 nM | 108 nM | 126 nM | 110 nM
GAGAAUCUCACGGCCGCCACUCACCUGUUAAUUGACAUCGACGGCCUCGACCAGUGAUGUUGUGUGAGGACCGGGUGUCUCGUGU [theeternabot_exclusion_KL_Trp_B_32] | 647 nM | 519 nM | 702 nM | 562 nM | 423 nM
CCUUCUCUUGAUAGUGAUGUUAUCAAGGACAAGGAUAUCAUCUCAAUGAGAAGGUGUCCUUGAUAACAUGGAGGUCUGAAACAGA [Omei KL FMN A Exc C v3] | 148 nM | 249 nM | 287 nM | 407 nM | 385 nM
AAGCAUUCUUCGGAUUGCAGACCCGCUGAGGAGGAUAUGACGAAAGUCAGAAGGUUUCAGUGAUGUUGAGGCCUCCUCAAUGGUC [whbob_Ex_FMNA__2th183] | 280 nM | 259 nM | 250 nM | 255 nM | 263 nM
GUGCAAAGCACCGGCACGAGCAGCCUAAAGGAGGAUAUGACGAAAGUCAGAAGGCCUAGUGAUGUUAGGUCUUGCUUGAGUCGAA [Omei KL FMN A Exc B v2] | 156 nM | 214 nM | 301 nM | 323 nM | 320 nM
GGGAGUAGUGCGGCCGCCACUGUGAAAGAAGAAGAAUAUAGUGAUGUUAUAUAGGAAGGGAAGAAUAGGACCGGGCAUUAGAUUU [SSTRyptB.aA] | 186 nM | 355 nM | 417 nM | 190 nM | 186 nM
AGCAGCAAAUCCUAGUGAUGUUAGGAUAUGUAGGAUAUCGGGAUACCGAGAAGGACAGAAGGAGGAGUGAUGUUCCUCAGCUGCA [FmnAX 23 #DoubleAptamer #DoubleK4 #SwitchBubble] | 116 nM | 106 nM | 104 nM | 102 nM | 94.9 nM
AAUGCAUAGUGAAGGAGCGCGAUAAGCAGUGAUGUUGCUUAGCUAUUAUUCAUUAUUUUAACGCAGGUAGGUCGCACUUUGCAUA [JR_ExcArginiB_Sub015] | 131 nM | 127 nM | 128 nM | 151 nM | 128 nM
AAUAAGCGUGGAAGGAGCGUCGUCCAGUGAUGUUGGAGUUAGAUACCAGUGAUGUUGGUUAGGCAGGUAGGUCGCCGCAAAGCUU [Exclusion Arginine B Gf 7] | 96.8 nM | 67.6 nM | 90.8 nM | 86.3 nM | 81 nM
AAGGAUCAGAGAGUGAUGUUCUCUAAUAAACGAGGACCGGUACGGCCGCCACUCGAAUAAGAUCCAGUCCUACGAAAAGUAGGAC [Omei inspired 6] | 431 nM | 338 nM | 485 nM | 613 nM | 132 nM
CAUGUGUCUGGAAGGAGCGCGGGUUGGUUAAACACUGUCGCGGGCCAGUGAUGUUGGAAUCCGCAGGUAGGUCGCCAGCCACUUG [Araton] | 284 nM | 476 nM | 350 nM | 533 nM | 460 nM
AAUGUUAGCAAAGGAUAUCUGAUGAGUGAUGUUUACGGACCGUUUGCGUUUCAUUACACGCAGCUCAGAGAAGGUUGGUGUGCAG [theeternabot_exclusion_KL_FMN_B_49] | 1230 nM | 866 nM | 1180 nM | 890 nM | 961 nM
GGCGGCCGCGCGCAAGCGCGGCCGGCCGAUACCAGCGCGCCGGCGCGCCCUUGGCAGCGGCGCCGAGUGAUGUUCGGCCUGCCGG [#2 Same State - Theophylline A Attempt #9 (HarryS)] | 477 nM | 267 nM | 449 nM | 374 nM | 401 nM
UACAUUGCAGUCUUCUUCGUCCUAGAAGACUAGGAUAUCAGGAAACUGAGAAGGAGUCUCUGCAGUGAUGUUGCAGCUAGGACGA [[K]'-[F2]'-[F1]'-[F1]-[F2]-[K1]-[K2]-[F]''_Design1] | 128 nM | 134 nM | 103 nM | 157 nM | 126 nM
UGGAGUUGACGAAAAGUCAACUCCUGAGAAGGAGCGGACGAAAGUCCAGGUAGGUCGCUCACUGCCAGUGAUGUUGGUAAAUAAA [#OpenEnded 1 - Direct theophylline transfer] | 89.5 nM | 175 nM | 113 nM | 144 nM | 82.8 nM
AAAGCUUGGAUGGACGUUAGCGACGGAGAAGGAGCGCACGGAAGUGCAGGUAGGUCGCUCCGAGUGAUGUUCGUGAGUGAUUGCU [Ditienti] | 229 nM | 329 nM | 385 nM | 252 nM | 301 nM
UGACGUUUGGGAAGGAGCGGAAUGUAAUACGGAAUGCGUGGAGAUGCAGUGAUGUUGCAGAUCCAGGUAGGUCGCCCAAGGGACG [Soanina] | 99.5 nM | 84.9 nM | 91.2 nM | 79.3 nM | 87.8 nM
CCUAUCUCAUACGAUACCAGUCGUCGAGUGAUGUUCGAUUAAAUAAAUUUGCCAAAUAACGACCCUUGGCAGCGUAUGGGAUAGG [Ex Theophylline B K4 16] | 273 nM | 295 nM | 318 nM | 334 nM | 326 nM
